Source: the DeepSol protein solubility set

Assay: soluble on expression in E. coli; label from the status in PepcDB or PDB records

Sequence	soluble on expression in E. coli
MHECKTVTLRTRPLKGRMMSFYLDYYPGYRDKETMKVIRHESLGIYIYANPRNKREQNFNEVMTEKAEAIRCRRFESVVNERYDFFDKYKLKADFLEYYRKQLRKHDQKWEFVYLHFNNFVHGKCTFEEIDIDLCNKFREYLLSAKKLRRNGRITRNSASGYWSTFRGFLKILYRNGMIKTNVNDFLEKIETEDVMKEALSVEELYKLAETPCKKPILKTASLFSCMTSLRISDILSLCWEDIVDYSAGGKCVHIITQKNKAEDIIPISEEALGLIGYSSEKKGLVFKGLMRSWTQIPMKEWI	not soluble
MHGITIDSGRALDMLASMIEEAEQQYQAHMRETPHYEPASAGEGFVAYGESINSLFQLLHQRNAQRLELIKLGLEDARQRVHDLSNTDTEFAARLGAVE	not soluble
MHHHHHHSSGRENLYFQGASEALKVVARCRPLSRKEEAAGHEQILTMDVKLGQVTLRNPRAAPGELPKTFTFDAVYDASSKQADLYDETVRPLIDSVLQGFNGTVFAYGQTGTGKTYTMQGTWVEPELRGVIPNAFEHIFTHISRSQNQQYLVRASYLEIYQEEIRDLLSKEPGKRLELKENPETGVYIKDLSSFVTKNVKEIEHVMNLGNQTRAVGSTHMNEVSSRSHAIFIITVECSERGSDGQDHIRVGKLNLVDLAGSERQNKAGPNTAGGAATPSSGGGGGGGGSGGGAGGERPKEASKINLSLSALGNVIAALAGNRSTHIPYRDSKLTRLLQDSLGGNAKTIMVATLGPASHSYDESLSTLRFANRAKNIKNKPRVNEDPKDTLLREF	soluble
MHHHHHHSSGRENLYFQGERVFGCDLGEHLLNSGFEVPQVLQSCTAFIERYGIVDGIYRLSGVASNIQRLRHEFDSEHVPDLTKEPYVQDIHSVGSLCKLYFRELPNPLLTYQLYEKFSDAVSAATDEERLIKIHDVIQQLPPPHYRTLEFLMRHLSLLADYCSITNMHAKNLAIVWAPNLLRSKQIESACFSGTAAFMEVRIQSVVVEFILNHVDVLFSGRISMAMQE	soluble
MHHHHHHSSGRENLYFQGNTTKHIILVRHGQYERRYKDDENSKRLTKEGCKQADITGKKLKDILNNKKVSVIYHSDMIRAKETANIISKYFPDANLINDPNLNEGTPYLPDPLPRHSKFDAQKIKEDNKRINKAYETYFYKPSGDEDEYQLVICHGNVIRYFLCRALQIPLFAWLRFSSYNCGITWLVLDDEGSVVLREFGSVSHLPFESVTYF	soluble
MHHHHHHSSGVDLGTENLYFQSGVVTHEQFKAALRMVVDQGDPRLLLDSYVKIGEGSTGIVCLAREKHSGRQVAVKMMDLRKQQRRELLFNEVVIMRDYQHFNVVEMYKSYLVGEELWVLMEFLQGGALTDIVSQVRLNEEQIATVCEAVLQALAYLHAQGVIHRDIKSDSILLTLDGRVKLSDFGFCAQISKDVPKRKSLVGTPYWMAPEVISRSLYATEVDIWSLGIMVIEMVDGEPPYFSDSPVQAMKRLRDSPPPKLKNSHKVSPVLRDFLERMLVRDPQERATAQELLDHPFLLQTGLPECLVPLIQLYRKQTSTC	soluble
MHHHHHHSSGVDLGTENLYFQSMARPATVLGAMEMGRRMDAPTSAAVTRAFLERGHTEIDTAFVYSEGQSETILGGLGLRLGGSDCRVKIDTKAIPLFGNSLKPDSLRFQLETSLKRLQCPRVDLFYLHMPDHSTPVEETLRACHQLHQEGKFVELGLSNYAAWEVAEICTLCKSNGWILPTVYQGMYNAITRQVETELFPCLRHFGLRFYAFNPLAGGLLTGKYKYEDKDGKQPVGRFFGNTWAEMYRNRYWKEHHFEGIALVEKALQAAYGASAPSMTSATLRWMYHHSQLQGAHGDAVILGMSSLEQLEQNLAAAEEGPLEPAVVDAFNQAWHLVAHECPNYFR	soluble
MHHHHHHSSGVDLGTENLYFQSMEEHDSPTEASQPIVEEEETKTFKDLGVTDVLCEACDQLGWTKPTKIQIEAIPLALQGRDIIGLAETGSGKTGAFALPILNALLETPQRLFALVLTPTRELAFQISEQFEALGSSIGVQSAVIVGGIDSMSQSLALAKKPHIIIATPGRLIDHLENTKGFNLRALKYLVMDEADRILNMDFETEVDKILKVIPRDRKTFLFSATMTKKVQKLQRAALKNPVKCAVSS	soluble
MHHHHHHSSGVDLGTENLYFQSMVEDHYEMGEELGSGQFAIVRKCRQKGTGKEYAAKFIKKRRLSSSRRGVSREEIEREVNILREIRHPNIITLHDIFENKTDVVLILELVSGGELFDFLAEKESLTEDEATQFLKQILDGVHYLHSKRIAHFDLKPENIMLLDKNVPNPRIKLIDFGIAHKIEAGNEFKNIFGTPEFVAPEIVNYEPLGLEADMWSIGVITYILLSGASPFLGETKQETLTNISAVNYDFDEEYFSNTSELAKDFIRRLLVKDPKRRMTIAQSLEHSWIKAIRRRNVRGEDSG	soluble
MHHHHHHSSMDDPIGLFVMRPQDGEVTVGGSITFSARVAGASLLKPPVVKWFKGKWVDLSSKVGQHLQLHDSYDRASKVYLFELHITDAQPAFTGGYRCEVSTKDKFDCSNFNLTVHEAM	soluble
MHIMVTQGGLMSLSIVHTRAALGVNAPPITVEVHISKGLPGLTMVGLPETTVKEARDRVRSAIINSGYEYPAKKITINLAPADLPKEGGRYDLPIAIALLAASEQLTANKLDEYELVGELALTGALRGVPGAISSATEAIKSGRKIIVAKDNEDEVGLINGEGCLIADHLQAVCAFLEGKHALERPKPTDAVSRALQHDLSDVIGQEQGKRGLEITAAGGHNLLLIGPPGTGKTMLASRINGLLPDLSNEEALESAAILSLVNAESVQKQWRQRPFRSPHHSASLTAMVGGGAIPGPGEISLAHNGVLFLDELPEFERRTLDALREPIESGQIHLSRTRAKITYPARFQLVAAMNPSPTGHYQGNHNRCTPEQTLRYLNRLSGPFLDRFDLSLEIPLPPPGILSKTVVPGESSATVKQRVMAARERQFKRQNKLNAWLDSPEIRQFCKLESEDAMWLEGTLIHLGLSIRAWQRLLKVARTIADIDQSDIITRQHLQEAVSYRAIDRLLIHLQKLLT	not soluble
MHIRLTLPFYIYPFHFFRGSKMVKIPKSHPRYWSLLYREKIIRGMEEGITAKAGLIAHGRGEAFDYLIGERTIPPAEEAMKVAVAKLLLANHPVISVNGNVAALVPRETVELAKVTRAKLEVNLFYRTEERVKKIAEVLKKTGAKEVLGLNPTKRIPGLESERGKVEEDGIWKADVVLVPLEDGDRTEALVRMGKFVITVDLNPLSRSARMANVTIVDNIIRAYPRMIELAKEMRDYSREELEEIVNNYDNNKILSEVLLHIRRRLEELAKEGLEHHHHHH	not soluble
MHITLRQLEVFAEVLKSGSTTQASVMLALSQSAVSAALTDLEGQLGVQLFDRVGKRLVVNEHGRLLYPRALALLEQAVEIEQLFREDNGAIRIYASSTIGNYILPAVIARYRHDYPQLPIELSVGNSQDVMQAVLDFRVDIGFIEGPCHSTEIISEPWLEDELVVFAAPTSPLARGPVTLEQLAAAPWILRERGSGTRDIVDYLLLSHLPKFEMAMELGNSEAIKHAVRHGLGISCLSRRVIEDQLQAGTLSEVAVPLPRLMRTLWRIHHRQKHLSNALRRFLDYCDPANVPR	not soluble
MHKKLNPKSMKRENKKMVLRYLIESGPHSRVEIARKTGLAQSAIWRIIEELVNEGLVEEKGTATGRRRKAVTYGPTRSFITSIIYNVEVLETLVAVGFLDGAWRIIERFSTPKDFDEFKQRVTSSYENILKSHVLNKNISKVVFSLPGIVNTESKFLIHAPNLGWRNIDFRREFGNLDLEVLVENDSNLSLLAEEFFSQDVKESDVAFFLYFGEGIGGAISVNGKIVRGENFAAGEIGHVVLDVKNGKEVEEFLSISKLVERMEKFVELQGESLDEKFRYIKRLWFSGEKNVKETMEEFLQHVAVVLKNIIYFLNPGVIVLGGVVNDLWDTFGSFIKRELEKITDREIANVLIRDTIFKEISPSLVGGNVLAIEEFLRQIT	not soluble
MHKPCAVIPVYNHETAVPAVVEVLLARGLPCVLVDDASSPQCAAVLEQLAGLDQVFLIRLAINQGKGGAVMAGLREAAQLGFSHALQVDADGQHDLTDVDNFIQHSQAHPEALVCGYPQYDASVPKGRLYARYLTHVWVWINSLSLQIPDSMCGFRVYPLPPTLALLDSVQLGRRMDFDPEILVRLAWRNQPMRWLPTRVHYPQDGLSHFRLFHDNALISKMHAKLFFGMLARLPLILWRRWRPLEHHHHHH	not soluble
MHLPQMGYDRAITVFSPDGRLFQVEYAREAVKRGATAIGIKCKEGVILIADKRVGSKLLEKDTIEKIYKIDEHICAATSGLVADARVLIDRARIEAQINRLTYDIPITVKELAKKICDFKQQYTQYGGVRPFGVSLLIAGVNEVPKLYETDPSGALLEYKATAIGMGRMAVTEFFEKEYRDDLSFDDAMVLGLVAMGLSIESELVPENIEVGYVKVDDRTFKEVSPEELKPYVERANERIRELLKK	soluble
MHLSSSLLLVAAALFALPDGTFECATNGLCGYQPSCAAYSQPRPSCGCASSYGCGSYGCYRLRARGAKSYQPKRGRSRVTVGGSSSEEAREVLRQRMAMERVRRKEQLTSSEELDLVSPSVLRNSKSEQPINPDRAFYECCIDRKLPDACLSKCSFGAFTKPTLQAMYFKQDPCPLDAMKEMQFCAAQGRDHRDCCARNGVTTTLAGPKCLSFCDQRLGRNQQLDMSYVPCFDRFESMKSCFWHDMTRYYKRV	not soluble
MHMEQDVNAALRPAYRHRYLQKGHHHSRNAVVDHQELTEKLNRLTSTSSLGSSLPSLSSLHSNSSIGTMPSAKIGDGSTSSLPMSSAKPMSTQTSEPQLPDVPEPNESLHNKTIDEFQKDQEKCDRLKARKAELEMRLRQKMQELKDVCVEEGDITGEMPVEINDVVLPGDDFPRLKRRVGTAYSIPDELIKADKADKMSQLETDVELHRRIVAAASRLATDKNTNKSVRKKRQKDLQAARLRLNRLEQGLQQMRHSASKPDISSLTSDSSNSWTASNSSGPMLTMAMTKSCPTTPRGSVPDLRNGLDDEKDEFDENVEDRVSRRAPSAISRHSLSQRYSGVSSSSTSSGSDSMGLGLPPRPTSRKSQQQQTTPFDDQLDNPMICEIPPPPSSAAAHPLYENVGYRSTSYRSSYRQAHYPTIQDEHTQRKRAQSAHSISTDNGATGRTSTYSVPLNDAAQKFREYDYDDEEDSTPTMDLPSHLINVRRLTSSISCQAGFATASLDRRYSKLNGGRLSSGGGGSDDVVRQNVTTRITTFPVATSAATVILSGKPYSASELPRFQPPPPVARVTHMPRGSLPPYSSATMGAQSPAPPPNGKLPTNPQMEALLSYYKQQQQQQHQQQSRSAPSQQPKTATIV	not soluble
MHMKLDDITYMNPWWEGKEDYHVKQWEKQKVHWEPKWIREISLKPFSLNFVLGPRQVGKTTGIKLLIQKILEENPPESVLYLNLEILPTYRELLDIIREFQELKKEEGIKTGYIFLDEASSLEGWWRGVKPLIDSGLLENDVITVTGSSSLRVRRDIELFPGRRGGGKTLEVMPLSFPEYARVMGLKKHKLEGSKVIKLFEKYIQTGGFPGSINGFPMEDLLGAYIGEFVRFGKSLEIAKEIFSALIRSAPSATSFRALAEMTSGYSYKVVQDYIEFFRDLYILGMAYLKQGNQVMYRREKKFFFRDPLLAKLFSLWSGTEIGKDALYEWIVQEHVFRKFGEIHYFRNSYEIDIIASDMKIEVKAGKAHRKYPRGVKVLEKEDVPFFLIELYNEDC	soluble
